{"source": "paper PMC7356742", "key": {"[1]": {"test_system": "RsuA G127C-Cy5 (Escherichia coli)", "test": "FRET", "settings": "4 mM Mg2+, FRET: 80 mM K-Hepes pH 7.6, 330 mM KCl, 0-20 mM MgCl2, 2 nM RNA folded at 37 C. Filter binding: 80 mM K-Hepes pH 7.6, 50 mM KCl, 4 mM MgCl2, 6 mM …; for binding signal: scale: fold higher affinity than wild type"}, "[2]": {"test_system": "RsuAΔN (S4-like domain truncation) (Escherichia coli)", "test": "filter binding", "settings": "4 mM Mg2+; fit 0-15 uM; FRET: 80 mM K-Hepes pH 7.6, 330 mM KCl, 0-20 mM MgCl2, 2 nM RNA folded at 37 C. Filter binding: 80 mM K-Hepes pH 7.6, 50 mM KCl, 4 mM MgCl2, 6 mM …"}, "[3]": {"test_system": "RsuA wild type (Escherichia coli)", "test": "filter binding", "settings": "4 mM Mg2+; fit 0-2 uM, bound fraction falls above 2 uM; FRET: 80 mM K-Hepes pH 7.6, 330 mM KCl, 0-20 mM MgCl2, 2 nM RNA folded at 37 C. Filter binding: 80 mM K-Hepes pH 7.6, 50 mM KCl, 4 mM MgCl2, 6 mM …"}}}
{"substance": "16S 5'-domain C507G", "values": [{"measurement": "binding signal (fold lower Kd than wild type (3.9 nM))", "setting": "[1]", "value": 390}]}
{"substance": "16S 5'-domain G505C", "values": [{"measurement": "binding signal", "setting": "[1]", "value": "> 30"}]}
{"substance": "16S 5'-domain G505C:G506C", "values": [{"measurement": "binding signal", "setting": "[1]", "value": "> 30"}]}
{"substance": "16S 5'-domain rRNA (filter binding)", "values": [{"measurement": "Kd", "setting": "[2]", "value": 57, "unit": "nM"}, {"measurement": "Kd", "setting": "[3]", "value": 12, "unit": "nM"}]}
